Laboratory results reported in paper PMC1150889 (The EMBO Journal, 2005).

Biological target: P22 tailspike protein gp9 (bacteriophage P22, UniProt P12528 1-667)
Assay: cryo-EM structure

B1: P22 tail accessory (head completion) protein gp4 (natural protein, bacteriophage P22, UniProt P26746 1-166, looked up)
chain: MQIKTKGDLVRAALRKLGVASDATLTDVEPQSMQDAVDDLEAMMAEWYQDGKGIITGYVFSDDENPPAEGDDHGLRSSAVSAVFHNLACRIAPDYALEATAKIIATAKYGKELLYKQTAISRAKRAPYPSRMPTGSGNSFANLNEWHYFPGEQNADSTTPHDEGNG
binding result: binds
